In paper PMC11933560:

Target: mCherry-LHBs (HBV large envelope protein with mCherry at the N-terminus) (Hepatitis B virus) (UniProt P03138)
Test: FRET or BRET

“mCherry-LHBs (HBV large envelope protein with mCherry at the N-terminus) (from UniProt P03138 1-389) (natural protein)” gave an FRET efficiency of 35%.
